Positions count from the first letter of the chain named. Numbered stars: 1 amine (or outer) side, 2 acyl side, 3 side chain; on linkers, the order of the positions; unused ones are H or OH. Square brackets hold non-standard residues; d marks the D form. Side chains are listed from the residue outwards. Ends that are not written are not given here. * marks the point of attachment. C20 diacid = O=C(O)CCCCCCCCCCCCCCCCCCC(=O)*; γGlu = O=C(O)[C@H](CCC(=O)[*:2])N[*:1]; AEEA = NCCOCCOCC(=O)O; Aib = CC(C)(N)C(=O)O
T1: human GIP receptor (human, UniProt P48546 22-466)
T1 sequence (looked up): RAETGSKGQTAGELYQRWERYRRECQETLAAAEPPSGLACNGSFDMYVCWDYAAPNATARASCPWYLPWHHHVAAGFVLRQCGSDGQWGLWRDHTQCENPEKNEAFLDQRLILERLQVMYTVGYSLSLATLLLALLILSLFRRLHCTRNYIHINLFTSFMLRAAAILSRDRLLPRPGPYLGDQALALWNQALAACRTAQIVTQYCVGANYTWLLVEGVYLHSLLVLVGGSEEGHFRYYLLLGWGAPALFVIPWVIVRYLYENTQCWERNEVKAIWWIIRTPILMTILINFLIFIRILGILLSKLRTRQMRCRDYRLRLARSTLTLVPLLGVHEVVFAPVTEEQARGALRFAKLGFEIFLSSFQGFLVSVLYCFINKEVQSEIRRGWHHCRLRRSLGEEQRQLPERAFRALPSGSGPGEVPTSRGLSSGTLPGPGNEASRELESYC

B1: Example 86 (peptide)
peptide: Y[Aib]EGTFTSDYSILLDKK([AEEA-AEEA-γGlu-C20 diacid])AQ[Aib]AFIEYLIEAGPSSGAPPPS-NH2
modifications: N-terminus assumed
SMILES: CC[C@H](C)[C@H](NC(=O)[C@H](CC(C)C)NC(=O)[C@H](Cc1ccc(O)cc1)NC(=O)[C@H](CCC(=O)O)NC(=O)[C@@H](NC(=O)[C@H](Cc1ccccc1)NC(=O)[C@H](C)NC(=O)C(C)(C)NC(=O)[C@H](CCC(N)=O)NC(=O)[C@H](C)NC(=O)[C@H](CCCCNC(=O)COCCOCCNC(=O)COCCOCCNC(=O)CC[C@H](NC(=O)CCCCCCCCCCCCCCCCCCC(=O)O)C(=O)O)NC(=O)[C@H](CCCCN)NC(=O)[C@H](CC(=O)O)NC(=O)[C@H](CC(C)C)NC(=O)[C@H](CC(C)C)NC(=O)[C@@H](NC(=O)[C@H](CO)NC(=O)[C@H](Cc1ccc(O)cc1)NC(=O)[C@H](CC(=O)O)NC(=O)[C@H](CO)NC(=O)[C@@H](NC(=O)[C@H](Cc1ccccc1)NC(=O)[C@@H](NC(=O)CNC(=O)[C@H](CCC(=O)O)NC(=O)C(C)(C)NC(=O)[C@@H](N)Cc1ccc(O)cc1)[C@@H](C)O)[C@@H](C)O)[C@@H](C)CC)[C@@H](C)CC)C(=O)N[C@@H](CCC(=O)O)C(=O)N[C@@H](C)C(=O)NCC(=O)N1CCC[C@H]1C(=O)N[C@@H](CO)C(=O)N[C@@H](CO)C(=O)NCC(=O)N[C@@H](C)C(=O)N1CCC[C@H]1C(=O)N1CCC[C@H]1C(=O)N1CCC[C@H]1C(=O)N[C@@H](CO)C(N)=O
B2: Example 4 (peptide)
peptide: YXEGTXTSDXSIXLDXKAQXEFIXXLIEGGPSSGAPPPS
modifications: Aib2; αMeF(2F)6; 4Pal10; αMeL13; Orn16; K17((2-[2-(2-Amino-ethoxy)-ethoxy]-acetyl)2-(γ-Glu)-CO-(CH2)16-CO2H); Aib20; D-Glu24; αMeY25; C-terminal NH2
B3: Example 88 (peptide)
peptide: YPEGTFTSDYSILLDKK([AEEA-AEEA-γGlu-C20 diacid])AQ[Aib]AFIEYLIEGGPSSGAPPPS-NH2
modifications: N-terminus assumed
SMILES: CC[C@H](C)[C@H](NC(=O)[C@H](CC(C)C)NC(=O)[C@H](Cc1ccc(O)cc1)NC(=O)[C@H](CCC(=O)O)NC(=O)[C@@H](NC(=O)[C@H](Cc1ccccc1)NC(=O)[C@H](C)NC(=O)C(C)(C)NC(=O)[C@H](CCC(N)=O)NC(=O)[C@H](C)NC(=O)[C@H](CCCCNC(=O)COCCOCCNC(=O)COCCOCCNC(=O)CC[C@H](NC(=O)CCCCCCCCCCCCCCCCCCC(=O)O)C(=O)O)NC(=O)[C@H](CCCCN)NC(=O)[C@H](CC(=O)O)NC(=O)[C@H](CC(C)C)NC(=O)[C@H](CC(C)C)NC(=O)[C@@H](NC(=O)[C@H](CO)NC(=O)[C@H](Cc1ccc(O)cc1)NC(=O)[C@H](CC(=O)O)NC(=O)[C@H](CO)NC(=O)[C@@H](NC(=O)[C@H](Cc1ccccc1)NC(=O)[C@@H](NC(=O)CNC(=O)[C@H](CCC(=O)O)NC(=O)[C@@H]1CCCN1C(=O)[C@@H](N)Cc1ccc(O)cc1)[C@@H](C)O)[C@@H](C)O)[C@@H](C)CC)[C@@H](C)CC)C(=O)N[C@@H](CCC(=O)O)C(=O)NCC(=O)NCC(=O)N1CCC[C@H]1C(=O)N[C@@H](CO)C(=O)N[C@@H](CO)C(=O)NCC(=O)N[C@@H](C)C(=O)N1CCC[C@H]1C(=O)N1CCC[C@H]1C(=O)N1CCC[C@H]1C(=O)N[C@@H](CO)C(N)=O
B4: Example 85 (peptide)
peptide: Y[Aib]EGTFTSDASILLDKK([AEEA-AEEA-γGlu-C20 diacid])AQ[Aib]AFIEYLIEGGPSSGAPPPS-NH2
modifications: N-terminus assumed
SMILES: CC[C@H](C)[C@H](NC(=O)[C@H](CC(C)C)NC(=O)[C@H](Cc1ccc(O)cc1)NC(=O)[C@H](CCC(=O)O)NC(=O)[C@@H](NC(=O)[C@H](Cc1ccccc1)NC(=O)[C@H](C)NC(=O)C(C)(C)NC(=O)[C@H](CCC(N)=O)NC(=O)[C@H](C)NC(=O)[C@H](CCCCNC(=O)COCCOCCNC(=O)COCCOCCNC(=O)CC[C@H](NC(=O)CCCCCCCCCCCCCCCCCCC(=O)O)C(=O)O)NC(=O)[C@H](CCCCN)NC(=O)[C@H](CC(=O)O)NC(=O)[C@H](CC(C)C)NC(=O)[C@H](CC(C)C)NC(=O)[C@@H](NC(=O)[C@H](CO)NC(=O)[C@H](C)NC(=O)[C@H](CC(=O)O)NC(=O)[C@H](CO)NC(=O)[C@@H](NC(=O)[C@H](Cc1ccccc1)NC(=O)[C@@H](NC(=O)CNC(=O)[C@H](CCC(=O)O)NC(=O)C(C)(C)NC(=O)[C@@H](N)Cc1ccc(O)cc1)[C@@H](C)O)[C@@H](C)O)[C@@H](C)CC)[C@@H](C)CC)C(=O)N[C@@H](CCC(=O)O)C(=O)NCC(=O)NCC(=O)N1CCC[C@H]1C(=O)N[C@@H](CO)C(=O)N[C@@H](CO)C(=O)NCC(=O)N[C@@H](C)C(=O)N1CCC[C@H]1C(=O)N1CCC[C@H]1C(=O)N1CCC[C@H]1C(=O)N[C@@H](CO)C(N)=O
B5: Example 77 (peptide)
peptide: Y[Aib]EGTFTSDYSILLKIAQ[Aib]AFIEYLIEGGPSSGAPPK([AEEA-AEEA-γGlu-C20 diacid])S-NH2
modifications: N-terminus assumed
SMILES: CC[C@H](C)[C@H](NC(=O)[C@H](CCCCN)NC(=O)[C@H](CC(C)C)NC(=O)[C@H](CC(C)C)NC(=O)[C@@H](NC(=O)[C@H](CO)NC(=O)[C@H](Cc1ccc(O)cc1)NC(=O)[C@H](CC(=O)O)NC(=O)[C@H](CO)NC(=O)[C@@H](NC(=O)[C@H](Cc1ccccc1)NC(=O)[C@@H](NC(=O)CNC(=O)[C@H](CCC(=O)O)NC(=O)C(C)(C)NC(=O)[C@@H](N)Cc1ccc(O)cc1)[C@@H](C)O)[C@@H](C)O)[C@@H](C)CC)C(=O)N[C@@H](C)C(=O)N[C@@H](CCC(N)=O)C(=O)NC(C)(C)C(=O)N[C@@H](C)C(=O)N[C@@H](Cc1ccccc1)C(=O)N[C@H](C(=O)N[C@@H](CCC(=O)O)C(=O)N[C@@H](Cc1ccc(O)cc1)C(=O)N[C@@H](CC(C)C)C(=O)N[C@H](C(=O)N[C@@H](CCC(=O)O)C(=O)NCC(=O)NCC(=O)N1CCC[C@H]1C(=O)N[C@@H](CO)C(=O)N[C@@H](CO)C(=O)NCC(=O)N[C@@H](C)C(=O)N1CCC[C@H]1C(=O)N1CCC[C@H]1C(=O)N[C@@H](CCCCNC(=O)COCCOCCNC(=O)COCCOCCNC(=O)CC[C@H](NC(=O)CCCCCCCCCCCCCCCCCCC(=O)O)C(=O)O)C(=O)N[C@@H](CO)C(N)=O)[C@@H](C)CC)[C@@H](C)CC
B6: Example 74 (peptide)
peptide: YXEGTFTSDYSIXLDKKAQXAXIEYLIEGGPSSGAPPPS
modifications: not fully specified; Aib2; αMeF13 as printed (likely αMeL13); K17((2-[2-(2-Amino-ethoxy)-ethoxy]-acetyl)2-(γ-Glu)-CO-(CH2)18-CO2H); Aib20; αMeF22; C-terminal NH2
B7: Example 79 (peptide)
peptide: B6 peptide with Y1X, X2A, X13L, X22F
modifications: N-terminal Ac; D-Tyr1; K17((2-[2-(2-Amino-ethoxy)-ethoxy]-acetyl)2-(γ-Glu)-CO-(CH2)18-CO2H); Aib20; C-terminal NH2
B8: Example 76 (peptide)
peptide: B6 peptide with F6X
modifications: not fully specified; Aib2; αMeF6; αMeF13 as printed (likely αMeL13); K17((2-[2-(2-Amino-ethoxy)-ethoxy]-acetyl)2-(γ-Glu)-CO-(CH2)18-CO2H); Aib20; αMeF22; C-terminal NH2
B9: Example 84 (peptide)
peptide: B6 peptide with X13L, X22F, E24X
modifications: Aib2; K17((2-[2-(2-Amino-ethoxy)-ethoxy]-acetyl)2-(γ-Glu)-CO-(CH2)18-CO2H); Aib20; D-Glu24; C-terminal NH2
B10: Example 89 (peptide)
peptide: B6 peptide with E3X, X13L, X22F
modifications: Aib2; Aad3; K17((2-[2-(2-Amino-ethoxy)-ethoxy]-acetyl)2-(γ-Glu)-CO-(CH2)18-CO2H); Aib20; C-terminal NH2
B11: Example 78 (peptide)
peptide: B6 peptide with Y1X, X13L, X22F
modifications: D-Tyr1; Aib2; K17((2-[2-(2-Amino-ethoxy)-ethoxy]-acetyl)2-(γ-Glu)-CO-(CH2)18-CO2H); Aib20; C-terminal NH2
B12: Example 82 (peptide)
peptide: B6 peptide with I12X, X13L, X22F
modifications: Aib2; D-Ile12; K17((2-[2-(2-Amino-ethoxy)-ethoxy]-acetyl)2-(γ-Glu)-CO-(CH2)18-CO2H); Aib20; C-terminal NH2
B13: Example 83 (peptide)
peptide: B6 peptide with X13L, X22F, E28X
modifications: Aib2; K17((2-[2-(2-Amino-ethoxy)-ethoxy]-acetyl)2-(γ-Glu)-CO-(CH2)18-CO2H); Aib20; D-Glu28; C-terminal NH2
B14: Example 81 (peptide)
peptide: B6 peptide with S11X, X13L, X22F
modifications: Aib2; D-Ser11; K17((2-[2-(2-Amino-ethoxy)-ethoxy]-acetyl)2-(γ-Glu)-CO-(CH2)18-CO2H); Aib20; C-terminal NH2
B15: Example 75 (peptide)
peptide: B6 peptide with X22F, L26X
modifications: not fully specified; Aib2; αMeF13 as printed (likely αMeL13); K17((2-[2-(2-Amino-ethoxy)-ethoxy]-acetyl)2-(γ-Glu)-CO-(CH2)18-CO2H); Aib20; αMeF26 as printed (likely αMeL26); C-terminal NH2

Biological target: T1, human GIP receptor
Experiment: cell-based or functional assay

| Binder | hGIPR cAMP EC50 ratio | hGIPR cAMP Rel EC50 |
| --- | --- | --- |
| B1 | 3.29 | 0.0452 nM |
| B2 | 5.95 | 0.0272 nM |
| B3 | 0.392 | 0.475 nM |
| B4 | 0.111 | 1.67 nM |
| B5 | 0.00102 | 135 nM |
| B6 | 1.7 | 0.0866 nM |
| B7 | 2.11 | 0.0732 nM |
| B8 | 1.24 | 0.124 nM |
| B9 | 1.59 | 0.0915 nM |
| B10 | 1.57 | 0.119 nM |
| B11 | 0.293 | 0.532 nM |
| B12 | 0.00679 | 24.3 nM |
| B13 | 0.804 | 0.182 nM |
| B14 | 0.373 | 0.428 nM |
| B15 | 0.69 | 0.214 nM |

Biological target: human GLP-1 receptor (human, UniProt P43220 24-463)
Experiment: cell-based or functional assay

| Binder | hGLP1R cAMP EC50 ratio | hGLP1R cAMP Rel EC50 |
| --- | --- | --- |
| B1 | 0.243 | 0.271 nM |
| B2 | 1.41 | 0.0297 nM |
| B3 | 0.0918 | 0.64 nM |
| B4 | 1.13 | 0.0518 nM |
| B5 | < 3.25e-05 | > 2000 nM |
| B6 | 0.115 | 0.467 nM |
| B7 | 0.041 | 2.02 nM |
| B8 | 0.63 | 0.125 nM |
| B9 | 0.173 | 0.374 nM |
| B10 | 0.175 | 0.335 nM |
| B11 | 0.143 | 0.544 nM |
| B12 | 0.00325 | 26.1 nM |
| B13 | 0.166 | 0.387 nM |
| B14 | 0.063 | 1.29 nM |
| B15 | 0.0359 | 1.49 nM |

Source: patent US20220048967A1 (published 2022)
